Laboratory results published in publication PMC9780223 (2022).

Target: purified recombinant PAPP-A free of STC2 (apo PAPP-A) (human, UniProt Q13219 82-1627, fluorescently labeled with Protein Labeling Kit RED-NHS (in MST))
Test: MST; in the presence of IGF2

Kd: ~160 nM
B1: IGFBP4 with C-terminal His6 tag (natural protein)
chain: DEAIHCPPCSEEKLARCRPPVGCEELVREPGCGCCATCALGLGMPCGVYTPRCGSGLRCYPPRGVEKPLHTLMHGQGVCMELAEIEAIQESLQPSDKDEGDHPNNSFSPCSAHDRRCLQKHFAKIRDRSTSGGKMKVNGAPREDARPVPQGSCQSELHRALERLAASQSRTHEDLYIIPIPNCDRNGNFHPKQCHPALDGQRGKCWCVDRKTGVKLPGGLEPKGELDCHQLADSFRE
